In patent US20200148765A1 (OSAKA UNIVERSITY, published 2020):
Substitutions are numbered along the chain they refer to.

T1: crab-eating macaque CLDN-5 protein (crab-eating macaque, UniProt O00501 1-218 (human entry))
T1 construct: Expressed on cells by retrovirus; also called cCLDN-5; MDCKII/cCLDN-5
T1 chain: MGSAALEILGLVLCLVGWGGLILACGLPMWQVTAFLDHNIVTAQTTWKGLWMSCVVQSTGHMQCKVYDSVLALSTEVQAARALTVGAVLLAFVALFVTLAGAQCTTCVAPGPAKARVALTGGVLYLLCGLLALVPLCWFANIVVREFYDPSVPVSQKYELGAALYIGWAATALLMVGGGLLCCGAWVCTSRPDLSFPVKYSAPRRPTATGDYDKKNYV

T2: wild-type human CLDN-5 protein (human, UniProt O00501 1-218)
T2 construct: Four-transmembrane tight junction protein expressed by retrovirus on HT-1080 (or MDCKII) cells; also called hCLDN-5; human Claudin-5 protein
T2 sequence: T1 chain with G86S, L127F, G179C, S190G

T3: mCLDN-1 protein (mouse, UniProt O88551 1-211)
T3 construct: Expressed on cells by retrovirus; also called mouse Claudin-1 protein
T3 sequence: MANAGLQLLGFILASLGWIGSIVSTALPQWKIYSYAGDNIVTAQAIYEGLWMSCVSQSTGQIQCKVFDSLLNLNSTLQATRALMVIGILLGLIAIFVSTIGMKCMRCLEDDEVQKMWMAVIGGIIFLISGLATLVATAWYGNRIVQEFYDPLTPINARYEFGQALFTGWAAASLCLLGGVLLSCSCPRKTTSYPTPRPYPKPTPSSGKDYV

T4: mCLDN-2 protein (mouse, UniProt O88552 1-230)
T4 construct: Expressed on cells by retrovirus; also called mouse Claudin-2 protein
T4 sequence: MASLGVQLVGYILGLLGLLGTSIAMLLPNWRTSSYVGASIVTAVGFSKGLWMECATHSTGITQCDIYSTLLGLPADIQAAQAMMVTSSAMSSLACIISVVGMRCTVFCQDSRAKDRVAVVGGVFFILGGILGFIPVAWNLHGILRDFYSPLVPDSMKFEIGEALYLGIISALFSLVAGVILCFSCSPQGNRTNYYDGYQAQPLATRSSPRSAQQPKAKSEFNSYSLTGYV

T5: mCLDN-3 protein (mouse, UniProt Q9Z0G9 1-219)
T5 construct: Expressed on cells by retrovirus; also called mouse Claudin-3 protein
T5 sequence: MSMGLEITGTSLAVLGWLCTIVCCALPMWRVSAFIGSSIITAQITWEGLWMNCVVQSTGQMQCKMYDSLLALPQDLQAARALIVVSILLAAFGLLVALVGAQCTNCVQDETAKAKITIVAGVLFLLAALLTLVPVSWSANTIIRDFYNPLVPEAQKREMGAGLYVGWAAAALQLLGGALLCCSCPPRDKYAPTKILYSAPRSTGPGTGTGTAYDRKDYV

T6: mouse CLDN-5 protein (mouse, UniProt O54942 1-218)
T6 construct: Expressed on cells by retrovirus; also called mCLDN-5; MDCKII/mCLDN-5
T6 sequence: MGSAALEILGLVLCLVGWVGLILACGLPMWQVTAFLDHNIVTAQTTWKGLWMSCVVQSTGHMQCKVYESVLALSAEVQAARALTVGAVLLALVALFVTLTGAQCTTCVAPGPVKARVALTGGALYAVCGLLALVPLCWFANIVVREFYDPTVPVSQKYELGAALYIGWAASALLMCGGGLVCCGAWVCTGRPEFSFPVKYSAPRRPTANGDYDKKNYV

B1: rat anti-CLDN-5 antibody R28 (antibody, rat IgG2a, V domains shown)
VH: EVQLVESGGGLVQPGRSLKLSCAASGFTFSDYFMAWVRQAPKKGLEWVASINYEGSRTYYGDSVKDRFTISRDNTKTTLYLQMTSLRSEDTATYYCARHPRRYFDFWGQGVMVTVSS
VL: DIVMTQSPSSLAVSAGETVTINCKSSRSLFSSGYQENYLAWYQQKPGQSPKMLIYLASTRESGVPDRFIGSGSGTDFTLTINTLQAEDLAIYYCQQHYDIPYTFGAGTKLEL
notes: Hybridoma monoclonal; also called antibody M
B2: mouse anti-CLDN-5 antibody M29 (antibody, mouse IgG3, V domains shown)
VH: EVQLVESGGGLVQPKGSLKLSCAASGFTFNIYAMHWVRQAPGKGLEWVARIRSKSSNYATYYVDSVKDRFIISRDDSQSMLYLQVNNLKTEDTAMYYCVREGNWDCFDYWGQGTTLTVSS
VL: DIVMSQSPSSLPVSVGQKVTMTCKSSQSLLYTSNQKNYLAWYQQKPGQSPKLLIYWASTRESGVPDRFTGSGSGTDFTLTISSVKAEDLAIYYCQQYYRYHTFGGGTRLEIK
notes: Hybridoma monoclonal; also called antibody D
B3: rat anti-CLDN-5 antibody R20 (antibody, rat IgG2a, V domains shown)
VH: EVQLVESGGGLVQPGRSMKLSCAVSGFTFSDYYMAWVRQAPKKGLEWVASISYEGRNTYYGDSVKGRFTISRDNAKNTLYLQMNSLRSEDTATYYCARHPRRYFDFWGPGTMVTVSS
VL: DIVMTQSPSSLAVSAGETVTINCKSSQSLLFSGDQENHLAWYQQKAGQSAKLLIYWASTRESGVPDRFIGSGSGADFTLTISSMQAEDRATYYCQQNYDIPYTFGAGTKLEL
notes: Hybridoma monoclonal; also called antibody L
B4: rat anti-CLDN-5 antibody R11 (antibody, rat IgG2b, V domains shown)
VH: EVQLVESGGGLVQPGRSRKLSCAASGFTFNNYGMAWVRQAPTKGLEWVASITNSGYTTYYRDSVKGRFTISRDNAKNALYLQMDSLRSEDTATYYCTTGGYGGYFPLFDYWGHGVMVTVSS
VL: DVVMTQTPVSLSVSLGGQTSISCRSSQSLFHSDGNTYLYWYLRKPGQSPQLLIYKVSNRFSGVPDRFSGSGSGTDFTLKISRVEPEDLGLYYCYQGTHYPPTFGSGTKLEI
notes: Hybridoma monoclonal; also called antibody J
B5: rat anti-CLDN-5 antibody R8 (antibody, rat IgG2b, V domains shown)
VH: VKVVESGGGLVQPGRSMKLSCAASGFTFSDYFMAWVRQSPKKGLEWVASINYGGSRTYYEDSVKGRFTISRDNAKSTLYLQMNSLRSEDTATYYCARHPHRLFDYWGQGVMVTVSS
VL: DIVMTQSPSFLAVSVGETVTINCKSSQSFLSSGNQENYLAWYQQKPGQSPKLLIHLASTRESGVPDRFIGSGSGTDFTLTISSMQAEDVAIYYCQQHYDIPYTFGAGTKLEL
notes: Hybridoma monoclonal; also called antibody H

How the values were obtained:
[1] = target: T1, crab-eating macaque CLDN-5 protein; assay: FACS on CLDN-5-expressing cells, antibody 5 µg/mL
Description: (§1) The obtained CLDN-expressing cells were seeded in a 10 cm dish, and on the next day, the cells were collected. The primary antibodies (100 μL) were added to the obtained 1.0×10⁵ cells and allowed to react for 1 hour at 4° C. At this time, a mixed solution of a C-CPE mutant (C-CPEmt) and a mouse anti-His tag antibody (Abeam) used in Non-Patent Literature 3 was used as positive control. The cells were washed three times with 0.2% BSA-PBS, then mixed with 100 μL of a secondary antibody solution (FITC conjugated goat anti-mouse IgG or anti-rat IgG (Jackson Immune Research, 115-095-003 or 112-095-003) 400x diluted with 1% BSA-PBS, and allowed to react for 1 hour at 4° C. The cells were washed with 0.2% BSA-TBS and then analyzed using FACS caliber (BD Bioscience).
In the same manner as in Example 1-2), a DNA fragment consisting of a cCLDN-5 protein (SEQ ID NO: 28)-encoding sequence or an mCLDN-5 protein (SEQ ID NO: 29)-encoding sequence was inserted into a pCX4pur vector, thereby obtaining vectors for preparing a retrovirus. By using these vectors with the vector for preparing a retrovirus prepared in Example 1-2), various animal species CLDN-5 protein-expressing cells were prepared. By using these cells and the antibodies (antibody concentration: 5 μg/mL, as primary antibody), FACS assay was performed in the same manner as in 3-1).

[2] = target: T2, wild-type human CLDN-5 protein; assay: FACS, hybridoma supernatant on CLDN-expressing cells
From the text: (§2) By the insertion of a DNA fragment consisting of an hCLDN-1 protein (SEQ ID NO: 30)-encoding sequence, an hCLDN-2 protein (SEQ ID NO: 31)-encoding sequence, an hCLDN-3 protein (SEQ ID NO 32)-encoding sequence, an hCLDN-4 protein (SEQ ID NO: 33)-encoding sequence, an hCLDN-6 protein (SEQ ID NO: 34)-encoding sequence, an hCLDN-7 protein (SEQ ID NO: 35)-encoding sequence, an mCLDN-1 protein (SEQ ID NO: 37)-encoding sequence, an mCLDN-2 protein (SEQ ID NO: 38)-encoding sequence, an mCLDN-3 protein (SEQ ID NO: 39)—encoding sequence, or an mCLDN-5 protein (SEQ ID NO: 29)-encoding sequence, vectors for preparing a retrovirus were obtained. By using these vectors and the vector for preparing a retrovirus prepared in Example 1-2), various CLDN protein-expressing cells were prepared. By using these cells and a culture supernatant of hybridomas producing antibodies as primary antibodies, FACS assay was performed by the following method.
as §1

mCLDN-1 protein = target: T3, mCLDN-1 protein; assay: as above
From the text: as §2, §1

mCLDN-2 protein = target: T4, mCLDN-2 protein; assay: as above
From the text: as §2, §1

mCLDN-3 protein = target: T5, mCLDN-3 protein; assay: as above
From the text: as §2, §1

mouse CLDN-5 protein = target: T6, mouse CLDN-5 protein; assay: as above
From the text: as §2, §1

Row | Binder | binding result [1] | binding result [2] | binding result (mCLDN-1 protein) | binding result (mCLDN-2 protein) | binding result (mCLDN-3 protein) | binding result (mouse CLDN-5 protein)
1 | B1 | binds | binds | no binding | no binding | no binding | no binding
2 | B2 | binds | binds | no binding | no binding | no binding | no binding
3 | B3 | binds | binds | no binding | no binding | no binding | no binding
4 | B4 | binds | binds | no binding | no binding | no binding | no binding
5 | B5 | binds | binds | no binding | no binding | no binding | no binding
